# Laboratory results reported in article PMC11673000 (2024).
# B1: FAT10 wild type (His-3xFLAG-FAT10) [not stated] / NEDD8 ultimate buster-1 long (NUB1L) [not stated] (parent complex)
# chain 1: MAPNASCLCVHVRSEEWDLMTFDANPYDSVKKIKEHVRSKTKVPVQDQVLLLGSKILKPRRSLSSYGIDKEKTIHLTLKVVKPSDEELPLFLVESGDEAKRHLLQVRRSSSVAQVKAMIETKTGIIPETQIVTCNGKRLEDGKMMADYGIRKGNLLFLACYCIGG
# chain 2: MAQKKYLQAKLTQFLREDRIQLWKPPYTDENKKVGLALKDLAKQYSDRLECCENEVEKVIEEIRCKAIERGTGNDNYRTTGIATIEVFLPPRLKKDRKNLLETRLHITGRELRSKIAETFGLQENYIKIVINKKQLQLGKTLEEQGVAHNVKAMVLELKQSEEDARKNFQLEEEEQNEAKLKEKQIQRTKRGLEILAKRAAETVVDPEMTPYLDIANQTGRSIRIPPSERKALMLAMGYHEKGRAFLKRKEYGIALPCLLDADKYFCECCRELLDTVDNYAVLQLDIVWCYFRLEQLECLDDAEKKLNLAQKCFKNCYGENHQRLVHIKGNCGKEKVLFLRLYLLQGIRNYHSGNDVEAYEYLNKARQLFKELYIDPSKVDNLLQLGFTAQEARLGLRACDGNVDHAATHITNRREELAQIRKEEKEKKRRRLENIRFLKGMGYSTHAAQQVLHAASGNLDEALKILLSNPQMWWLNDSNPETDNRQESPSQENIDRLVYMGFDALVAEAALRVFRGNVQLAAQTLAHNGGSLPPELPLSPEDSLSPPATSPSDSAGTSSASTDEDMETEAVNEILEDIPEHEEDYLDSTLEDEEIIIAEYLSYVENRKSATKKN
# Variants of: B1
# Experiment: HA-immunoprecipitation, SDS-PAGE and immunoblot (ECL quantification); HEK293T cells transiently co-transfected with HA-NUB1L and FLAG-FAT10; three independent experiments; parent: 4; read off a plot
row,response,Variant
1,"~3 IP [FAT10] / Load [FAT10], FAT10 D = 1",chain 1 S109D
2,"~0.95 IP [FAT10] / Load [FAT10], FAT10 D = 1",chain 1 T77E
3,"~2.6 IP [FAT10] / Load [FAT10], FAT10 D = 1",chain 1 S95D

# Continued, variant first:
row,Variant,response
1,chain 1 S62D,"~3.4 IP [FAT10] / Load [FAT10], FAT10 D = 1"
2,chain 1 S64D,"~2.6 IP [FAT10] / Load [FAT10], FAT10 D = 1"

# Variants of: B1
# Experiment: HA-immunoprecipitation, SDS-PAGE and immunoblot (ECL quantification); HEK293T cells transiently co-transfected with HA-NUB1L and FLAG-FAT10; three independent experiments; parent: 4.3; read off a plot
row,response,Variant
1,"~1.8 IP [FAT10] / Load [FAT10], FAT10 D = 1",chain 1 T77E
2,"~2.5 IP [FAT10] / Load [FAT10], FAT10 D = 1","chain 1 S64D, chain 1 T77E"

# The next lines start with the variant.
row,Variant,response
1,"chain 1 S62D, chain 1 S64D, chain 1 T77E","~1.9 IP [FAT10] / Load [FAT10], FAT10 D = 1"
2,"chain 1 S62D, chain 1 T77E","~2.8 IP [FAT10] / Load [FAT10], FAT10 D = 1"
3,"chain 1 S62D, chain 1 S64D, chain 1 S95D, chain 1 S109D","~7.7 IP [FAT10] / Load [FAT10], FAT10 D = 1"
4,"chain 1 S62D, chain 1 S64D","~4.7 IP [FAT10] / Load [FAT10], FAT10 D = 1"

# Variants of: B1
# Experiment: HA-immunoprecipitation, SDS-PAGE and immunoblot (ECL quantification); HEK293T cells transiently co-transfected with HA-NUB1L and FLAG-FAT10; three independent experiments; parent: 4
row,response,Variant
1,"1 IP [FAT10] / Load [FAT10], FAT10 D = 1","chain 1 S62D, chain 1 S64D, chain 1 T77E, chain 1 S95D, chain 1 S109D"

# Variants of: B1
# Experiment: HA-immunoprecipitation, SDS-PAGE and immunoblot (ECL quantification); HEK293T cells transiently co-transfected with HA-NUB1L and FLAG-FAT10; three independent experiments; parent: 4.3
row,response,Variant
1,"1 IP [FAT10] / Load [FAT10], FAT10 D = 1","chain 1 S62D, chain 1 S64D, chain 1 T77E, chain 1 S95D, chain 1 S109D"
